The target in assay [1] is T1, human recombinant PGRP-S (also called PGLYRP1) (human, UniProt O75594 22-196).
T1 construct: also called PRGP-S; human PGRP-SA ortholog
T1 sequence (looked up): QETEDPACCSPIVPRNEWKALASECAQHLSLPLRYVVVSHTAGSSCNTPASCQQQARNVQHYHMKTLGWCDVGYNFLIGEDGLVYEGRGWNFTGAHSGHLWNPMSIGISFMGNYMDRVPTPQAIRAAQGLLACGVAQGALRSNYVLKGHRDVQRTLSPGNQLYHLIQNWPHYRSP
The experiment in a line: ELISA; […]) or 5% BSA ([…]. The settings on record: both partners purified. (ELISA stands for enzyme-linked immunosorbent assay.)

The target of assay [2] is T2, Drosophila melanogaster peptidoglycan-recognition protein-SA (PGRP-SA), T7-tagged (D. melanogaster, UniProt Q9VYX7 27-203).
T2 construct: also called PRGP-SA
T2 sequence (looked up): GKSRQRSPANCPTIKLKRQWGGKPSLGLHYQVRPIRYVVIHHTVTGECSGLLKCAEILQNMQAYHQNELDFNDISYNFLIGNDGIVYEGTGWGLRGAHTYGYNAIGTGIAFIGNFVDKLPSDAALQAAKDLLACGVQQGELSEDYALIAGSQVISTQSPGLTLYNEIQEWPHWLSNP
The experiment in a line: ELISA; […]) or 5% BSA ([…]. The settings on record: both partners purified.

B1: PA20, 20 kDa subunit of anthrax toxin Protective Antigen (PA83) (domain or fragment)
chain: EVKQENRLLNESESSSQGLLGYYFSDLNFQAPMVVTSSTTGDLSIPSSELENIPSENQYFQSAIWSGFIKVKKSDEYTFATSADNHVTMWVDDQEVINKASNSNKIRLEKGRLYQIKIQYQRENPTEKGLDFKLYWTDSQNKKEVISSDNLQLPELKQKSSNS
notes: also called pelB-PA20-6His
As to B1, the binding result in assay [1] and in assay [2] was “binds” in each case.

(Values after publication PMC7458312, “Anthrax toxin component, Protective Antigen, protects insects from bacterial infections” (PLoS Pathogens, 2020).)
